{"source": "paper PMC9945994", "about": "(Proceedings of the National Academy of Sciences of the …, 2023)", "molecules": {"B1": {"name": "Fenna–Matthews–Olson (FMO) protein (natural protein)", "chain": "MALFGSNDVTTAHSDYEIVLEGGSSSWGKVKARAKVNAPPASPLLPADCDVKLNVKPLDPAKGFVRISAVFESIVDSTKNKLTIEADIANETKERRISVGEGMVSVGDFSHTFSFEGSVVNLFYYRSDAVRRNVPNPIYMQGRQFHDILMKVPLDNNDLIDTWEGTVKAIGSTGAFNDWIRDFWFIGPAFTALNEGGQRISRIEVNGLNTESGPKGPVGVSRWRFSHGGSGMVDSISRWAELFPSDKLNRPAQVEAGFRSDSQGIEVKVDGEFPGVSVDAGGGLRRILNHPLIPLVHHGMVGKFNNFNVDAQLKVVLPKGYKIRYAAPQYRSQNLEEYRWSGGAYARWVEHVCKGGVGQFEILYAQ"}, "B2": {"name": "PscD, 17-kDa protein of GsbRC (natural protein, Chlorobaculum tepidum TLS, UniProt Q8KEP5 1-143, looked up)", "chain": "MQPQLSRPQTASNQVRKAVSGPWSGNAVHKAEKYFITSAKRDRDGKLQIELVPASGRRKLSPTPEMIRRLIDGEIEIYILTTQPDIAIDMNKEIIDMENRYVIDFDKRGVKWTMREIPVFYHEGKGLCVELHNKIYTLDQFFK"}}, "key": {"[1]": {"biological_target": "PscA, 82-kDa core subunit of the green sulfur bacterial reaction center (GsbRC) (Chlorobaculum tepidum TLS)", "assay": "cryo-EM structure"}, "[2]": {"biological_target": "reaction center of the green sulfur bacterium Chlorobaculum tepidum (GsbRC) (Chlorobaculum tepidum TLS) (UniProt O07091)"}, "[3]": {"biological_target": "T1, Fenna–Matthews–Olson (FMO) protein (Chlorobaculum tepidum TLS, UniProt Q46393 1-366)", "T1 sequence (looked up)": "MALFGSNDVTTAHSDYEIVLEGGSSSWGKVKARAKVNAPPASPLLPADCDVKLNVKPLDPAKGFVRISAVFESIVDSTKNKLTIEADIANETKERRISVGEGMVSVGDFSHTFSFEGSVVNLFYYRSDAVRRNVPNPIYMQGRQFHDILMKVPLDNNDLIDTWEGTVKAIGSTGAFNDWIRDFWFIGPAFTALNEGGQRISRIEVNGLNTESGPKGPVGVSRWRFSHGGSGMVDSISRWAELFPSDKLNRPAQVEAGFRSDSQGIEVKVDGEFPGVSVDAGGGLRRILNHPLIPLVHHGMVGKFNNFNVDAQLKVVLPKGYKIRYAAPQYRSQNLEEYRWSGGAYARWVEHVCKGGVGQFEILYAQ", "assay": "cryo-EM structure"}}, "note": "“And” between values parts separate entries of the source, which are not always exact repeats. Equal entries are not always repeated.", "data": [{"molecule": "PscA, 82-kDa core subunit of the green sulfur bacterial reaction center (GsbRC) (natural protein)", "values": [{"measurement": "stoichiometry N", "setting": "[1]", "result": 2}]}, {"molecule": "B1", "values": [{"measurement": "stoichiometry N", "setting": "[2]", "result": "2 and 1"}]}, {"molecule": "B2", "values": [{"measurement": "binding result", "setting": "[3]", "result": "binds"}]}]}
